Source: patent US20040219163

Molecular target: prostate-specific antigen (PSA) (UniProt P07288)
Sequence (P07288 25-261): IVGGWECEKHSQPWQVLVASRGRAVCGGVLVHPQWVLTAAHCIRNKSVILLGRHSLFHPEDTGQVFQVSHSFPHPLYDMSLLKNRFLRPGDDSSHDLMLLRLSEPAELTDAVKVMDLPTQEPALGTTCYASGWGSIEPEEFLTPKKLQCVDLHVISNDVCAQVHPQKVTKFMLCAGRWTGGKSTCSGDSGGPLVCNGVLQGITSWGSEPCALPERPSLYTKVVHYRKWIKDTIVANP

Substance: Human glandular kallikrein (hK2)
- PSA enzymatic activity on chromogenic substrate S-2586 (absorbance at 405 nm); 100 ng hK2 added to 2.5 ug PSA from L1/PSA/IL2 supernatant: The activity of PSA is increased 500% when incubated with hK2
